Here are results for eight sequences from PMC12305957.

The target in data set [1] is T1, Reb1 (Saccharomyces cerevisiae) (UniProt P21538).
T1 sequence: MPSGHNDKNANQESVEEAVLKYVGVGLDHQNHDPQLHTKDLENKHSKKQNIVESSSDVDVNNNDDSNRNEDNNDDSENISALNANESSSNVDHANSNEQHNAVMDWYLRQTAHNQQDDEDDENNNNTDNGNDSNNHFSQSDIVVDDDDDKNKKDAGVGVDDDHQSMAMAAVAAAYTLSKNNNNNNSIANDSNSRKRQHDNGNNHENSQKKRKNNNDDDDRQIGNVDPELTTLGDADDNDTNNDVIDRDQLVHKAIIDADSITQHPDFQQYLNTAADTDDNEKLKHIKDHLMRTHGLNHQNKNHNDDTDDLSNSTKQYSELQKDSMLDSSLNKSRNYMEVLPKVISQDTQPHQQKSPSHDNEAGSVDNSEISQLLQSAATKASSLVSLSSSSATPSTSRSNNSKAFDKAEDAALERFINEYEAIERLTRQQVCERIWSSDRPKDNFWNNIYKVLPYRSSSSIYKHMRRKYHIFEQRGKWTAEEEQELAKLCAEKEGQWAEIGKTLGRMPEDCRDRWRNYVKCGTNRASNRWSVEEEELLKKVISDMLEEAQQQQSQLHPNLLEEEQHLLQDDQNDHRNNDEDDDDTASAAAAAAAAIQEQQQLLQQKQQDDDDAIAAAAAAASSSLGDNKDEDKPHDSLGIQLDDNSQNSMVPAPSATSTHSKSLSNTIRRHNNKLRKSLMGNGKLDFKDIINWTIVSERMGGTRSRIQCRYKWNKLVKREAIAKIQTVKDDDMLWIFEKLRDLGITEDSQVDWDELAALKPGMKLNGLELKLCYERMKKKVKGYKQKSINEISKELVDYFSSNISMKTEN
Briefly: EMSA. The note with it: 11.87 mM HEPES-KOH pH 7.9, 3 mM Tris-Cl, 96.67 mM NaCl, 3.33 mM KCl, 5.3 mM MgCl2, 0.13 mM Mg acetate, 1.33 uM ZnCl2, 0.05% NP-40, 10% glycerol, 100 ug/mL BSA …. On the technique in general: In EMSA bound probe runs differently from free probe, usually more slowly.

In data set [2] the target is T2, Abf1 (Saccharomyces cerevisiae) (UniProt P14164).
T2 sequence: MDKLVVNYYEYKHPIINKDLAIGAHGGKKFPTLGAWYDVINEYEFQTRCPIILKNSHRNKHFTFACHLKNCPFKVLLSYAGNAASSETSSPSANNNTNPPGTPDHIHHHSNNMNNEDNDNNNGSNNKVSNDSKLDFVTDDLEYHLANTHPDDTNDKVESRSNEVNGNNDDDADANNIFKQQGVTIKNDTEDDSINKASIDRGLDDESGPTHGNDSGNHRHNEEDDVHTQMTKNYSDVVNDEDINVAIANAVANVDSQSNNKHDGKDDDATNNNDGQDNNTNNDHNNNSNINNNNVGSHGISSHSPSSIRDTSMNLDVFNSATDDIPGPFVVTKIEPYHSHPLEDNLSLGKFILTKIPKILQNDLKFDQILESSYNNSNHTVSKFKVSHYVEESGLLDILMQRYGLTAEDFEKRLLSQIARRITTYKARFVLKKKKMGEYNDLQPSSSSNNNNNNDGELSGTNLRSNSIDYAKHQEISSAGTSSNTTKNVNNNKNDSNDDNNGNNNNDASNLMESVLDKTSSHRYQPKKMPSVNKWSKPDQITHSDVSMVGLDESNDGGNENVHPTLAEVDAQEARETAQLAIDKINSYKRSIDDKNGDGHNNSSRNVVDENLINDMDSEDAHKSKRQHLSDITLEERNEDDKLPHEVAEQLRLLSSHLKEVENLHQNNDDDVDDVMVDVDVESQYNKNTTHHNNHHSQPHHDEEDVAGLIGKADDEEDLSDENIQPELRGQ
Briefly: EMSA. The settings on record: 11.87 mM HEPES-KOH pH 7.9, 3 mM Tris-Cl, 96.67 mM NaCl, 3.33 mM KCl, 5.3 mM MgCl2, 0.13 mM Mg acetate, 1.33 uM ZnCl2, 0.05% NP-40, 10% glycerol, 100 ug/mL BSA ….

“ACAGGATGTATATATCTGACACGTGCCTGGAGACTAGGGAGTAATCCCCTTGGCGGTTAAAACGCGGGGGACAGCGCGTACGTGCGTTTAAGCGGTGCTAGAGCTGTCTACGACCAATTGAGCGGCCTCGGCACCGGGATTCTCCAGGGCGGCCGCCCGGGTAACGCATCACCATGGTGATGACCGCGGACCTGCAGGCATGCAAGCTTGAGTATTCTATAGTGTCA (double strand) [NC-80/G-GG nucleosome]” yielded a dissociation constant Kd in data set [1] of 1.06 nM.
“ACAGGATGTATATATCTGACACGTGCCTGGAGACTAGGGAGTAATCCCCTTGGCGGTTAAAACGCGGGGGACAGCGCGTACGTGCGTTTAAGCGGTGCTAGAGCTGTCTACGACCAATTGAGCGGCCTCGGCACCGGGATTCTCCAGGGCGGCCGCTAATCGTATTGCATGATATGGTGATGACCGCGGACCTGCAGGCATGCAAGCTTGAGTATTCTATAGTGTCA (double strand) [NC-80/A-T nucleosome]” displayed a Kd in data set [2] of 2.39 nM.
Sequence “ACAGGATGTATATATCTGACACGTGCCTGGAGACTAGGGAGTAATCCCCTTGGCGGTTAAAACGCGGGGGACAGCGCGTACGTGCGTTTAAGCGGTGCTAGAGCTGTCTACGACCAATTGAGCGGCCTCGGCACCGGGATTCTCCAGGGCGGCCGCTCGGGTAAAGCATCACCATGGTGATGACCGCGGACCTGCAGGCATGCAAGCTTGAGTATTCTATAGTGTCA (double strand) [NC-80/T-AG nucleosome]” returned a Kd in data set [1] of 5.94 nM.
As to “ACAGGATGTATATATCTGACACGTGCCTGGAGACTAGGGAGTAATCCCCTTGGCGGTTAAAACGCGGGGGACAGCGCGTACGTGCGTTTAAGCGGTGCTAGAGCTGTCTACGACCAATTGAGCGGCCTCGGCACCGGGATTCTCCAGGGCGGCCGCTTATCGTATAAAGTGATAGGGTGATGACCGCGGACCTGCAGGCATGCAAGCTTGAGTATTCTATAGTGTCA (double strand) [NC-80/A3G nucleosome]”, in data set [2], the dissociation constant (Kd) worked out at 2.22 nM.
Still for that read-out and setting: the figure for “ACAGGATGTATATATCTGACACGTGCCTGGAGACTAGGGAGTAATCCCCTTGGCGGTTAAAACGCGGGGGACAGCGCGTACGTGCGTTTAAGCGGTGCTAGAGCTGTCTACGACCAATTGAGCGGCCTCGGCACCGGGATTCTCCAGGGCGGCCGCTTATCGTATTGCATGATAGGGTGATGACCGCGGACCTGCAGGCATGCAAGCTTGAGTATTCTATAGTGTCA (double strand) [NC-80/T-G nucleosome]” is 2.49 nM.
Still for that read-out and setting: the figure for “ACAGGATGTATATATCTGACACGTGCCTGGAGACTAGGGAGTAATCCCCTTGGCGGTTAAAACGCGGGGGACAGCGCGTACGTGCGTTTAAGCGGTGCTAGAGCTGTCTACGACCAATTGAGCGGCCTCGGCACCGGGATTCTCCAGGGCGGCCGCTTATCGTATTGCATGATATGGTGATGACCGCGGACCTGCAGGCATGCAAGCTTGAGTATTCTATAGTGTCA (double strand) [NC-80/T-T nucleosome]” is 2.52 nM.
“ACAGGATGTATATATCTGACACGTGCCTGGAGACTAGGGAGTAATCCCCTTGGCGGTTAAAACGCGGGGGACAGCGCGTACGTGCGTTTAAGCGGTGCTAGAGCTGTCTACGACCAATTGAGCGGCCTCGGCACCGGGATTCTCCAGGGCGGCCGGACGGGTAACGCATCACCATGGTGATGACCGCGGACCTGCAGGCATGCAAGCTTGAGTATTCTATAGTGTCA (double strand) [NC-80/G-TC nucleosome]”: the Kd in data set [1] amounted to 1.11 nM.
The same measure, in the same setting: the figure for “ACAGGATGTATATATCTGACACGTGCCTGGAGACTAGGGAGTAATCCCCTTGGCGGTTAAAACGCGGGGGACAGCGCGTACGTGCGTTTAAGCGGTGCTAGAGCTGTCTACGACCAATTGAGCGGCCTCGGCACCGGGATTCTCCAGGGCGGCCGGCCGGGTAACGCATCACCATGGTGATGACCGCGGACCTGCAGGCATGCAAGCTTGAGTATTCTATAGTGTCA (double strand) [NC-80/G-GC nucleosome]” is 1.07 nM.

A word on the Kd: it is the concentration at which binding is half-saturated. Low values mean tighter binding, high ones weaker binding.
